Measurements taken from the supplement of paper PMC9112550, “Optimization of the antimicrobial peptide Bac7 by deep mutational scanning” (BMC Biology, 2022).

System: Escherichia coli TOP10
Experiment: shrunken log2 fold change of peptide-encoding DNA abundance (4.5 h post-induction vs induction); higher = less antimicrobial activity (less host growth inhibition)
Settings: time post-induction: 4.5 h; library: site-saturation at positions 5, 18, 19, 20
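Also: peptides expressed intracellularly from a pBAD plasmid library in pooled LB shake-flask culture, induced with 0.3% L-arabinose, DNA abundance read by NGS, three biological replicates, DESeq2 with apeglm shrinkage.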

Row | Sequence | shrunken log2 fold change
1 | RRIRLRPPRLPRPRPRPWSCPRP | -0.136
2 | RRIRKRPPRLPRPRPRPSHLPRP | -0.124
3 | RRIRVRPPRLPRPRPRPDVIPRP | -0.0508
4 | RRIRERPPRLPRPRPRPERHPRP | -0.152
5 | RRIRFRPPRLPRPRPRPCRKPRP | 0.0312
6 | RRIRFRPPRLPRPRPRPVFFPRP | 0.00921
7 | RRIRRRPPRLPRPRPRPNEYPRP | -0.123
8 | RRIRIRPPRLPRPRPRPMVHPRP | -0.0468
9 | RRIRFRPPRLPRPRPRPNAIPRP | -0.322
10 | RRIRTRPPRLPRPRPRPLGSPRP | 0.0751
11 | RRIRKRPPRLPRPRPRPHHDPRP | -0.121
12 | RRIRIRPPRLPRPRPRPFFNPRP | -0.501
13 | RRIRTRPPRLPRPRPRPQLSPRP | 0.212
14 | RRIRNRPPRLPRPRPRPEWRPRP | 0.404
15 | RRIRRRPPRLPRPRPRPDTWPRP | -0.131
16 | RRIRGRPPRLPRPRPRPQGKPRP | 0.0794
17 | RRIRCRPPRLPRPRPRPGHSPRP | -0.347
18 | RRIRRRPPRLPRPRPRPDREPRP | 0.0377
19 | RRIRVRPPRLPRPRPRPNDIPRP | -0.235
20 | RRIRWRPPRLPRPRPRPCTDPRP | 0.0992
21 | RRIRWRPPRLPRPRPRPSGHPRP | -0.195
22 | RRIRQRPPRLPRPRPRPWVPPRP | -0.152
23 | RRIRVRPPRLPRPRPRPFCQPRP | -0.203
24 | RRIRKRPPRLPRPRPRPCDMPRP | -0.00141
25 | RRIRKRPPRLPRPRPRPEEAPRP | 3.85

Row | Sequence | shrunken log2 fold change
26 | RRIRKRPPRLPRPRPRPGPGPRP | 0.493
27 | RRIRTRPPRLPRPRPRPYCSPRP | -0.858
28 | RRIRSRPPRLPRPRPRPAWCPRP | 0.545
29 | RRIRFRPPRLPRPRPRPLHRPRP | 0.136
30 | RRIRMRPPRLPRPRPRPVCAPRP | 0.698
31 | RRIRFRPPRLPRPRPRPAKDPRP | 0.255
32 | RRIRMRPPRLPRPRPRPPYDPRP | 0.0745
33 | RRIRFRPPRLPRPRPRPKRNPRP | 0.203
34 | RRIRWRPPRLPRPRPRPDESPRP | -0.0029
35 | RRIRSRPPRLPRPRPRPSQFPRP | -0.345
36 | RRIRWRPPRLPRPRPRPGLMPRP | 0.444
37 | RRIRIRPPRLPRPRPRPMCRPRP | -0.236
38 | RRIRARPPRLPRPRPRPPRHPRP | 0.937
39 | RRIRNRPPRLPRPRPRPCKDPRP | -0.00844
40 | RRIRNRPPRLPRPRPRPGWWPRP | -0.0419
41 | RRIRFRPPRLPRPRPRPEYTPRP | -0.0548
42 | RRIRIRPPRLPRPRPRPAVRPRP | 0.445
43 | RRIRGRPPRLPRPRPRPMGCPRP | 0.0963
44 | RRIRGRPPRLPRPRPRPHLLPRP | 0.306
45 | RRIRCRPPRLPRPRPRPNAVPRP | 0.0238
46 | RRIRTRPPRLPRPRPRPPFLPRP | 0.207
47 | RRIRYRPPRLPRPRPRPICCPRP | -0.137
48 | RRIRCRPPRLPRPRPRPAYYPRP | -0.476
49 | RRIRIRPPRLPRPRPRPAREPRP | 0.604
50 | RRIRVRPPRLPRPRPRPKNSPRP | -0.34

Row | Sequence | shrunken log2 fold change
51 | RRIRIRPPRLPRPRPRPCKKPRP | -0.0718
52 | RRIRTRPPRLPRPRPRPAQSPRP | 0.343
53 | RRIRQRPPRLPRPRPRPMMLPRP | 0.052
54 | RRIRLRPPRLPRPRPRPHGQPRP | 0.0101
55 | RRIRHRPPRLPRPRPRPPAKPRP | 0.539
56 | RRIRVRPPRLPRPRPRPCMHPRP | 1.2
57 | RRIRKRPPRLPRPRPRPPAQPRP | 0.698
58 | RRIRKRPPRLPRPRPRPDWQPRP | -0.0216
59 | RRIRPRPPRLPRPRPRPHIDPRP | -0.215
60 | RRIRIRPPRLPRPRPRPNVQPRP | -0.284
61 | RRIRPRPPRLPRPRPRPHDNPRP | -0.347
62 | RRIRLRPPRLPRPRPRPFSGPRP | -0.374
63 | RRIRYRPPRLPRPRPRPGRLPRP | -0.0505
64 | RRIRQRPPRLPRPRPRPNMWPRP | -0.419
65 | RRIRMRPPRLPRPRPRPQDCPRP | 0.0414
66 | RRIRMRPPRLPRPRPRPFMKPRP | -0.0288
67 | RRIRERPPRLPRPRPRPFQAPRP | -0.215
68 | RRIRFRPPRLPRPRPRPDYVPRP | -0.00174
69 | RRIRTRPPRLPRPRPRPHAMPRP | -0.31
70 | RRIRVRPPRLPRPRPRPWSSPRP | -1.19
71 | RRIRRRPPRLPRPRPRPMGTPRP | 0.241
72 | RRIRMRPPRLPRPRPRPVTRPRP | 0.494
73 | RRIRHRPPRLPRPRPRPHQPPRP | -0.0185
74 | RRIRIRPPRLPRPRPRPCTHPRP | -0.791
75 | RRIRKRPPRLPRPRPRPCCLPRP | -0.0964

Row | Sequence | shrunken log2 fold change
76 | RRIRPRPPRLPRPRPRPNVVPRP | -0.0229
77 | RRIRMRPPRLPRPRPRPLSIPRP | -0.0206
78 | RRIRKRPPRLPRPRPRPGLYPRP | 0.324
79 | RRIRRRPPRLPRPRPRPKALPRP | 0.237
80 | RRIRPRPPRLPRPRPRPWIEPRP | -0.162
81 | RRIRSRPPRLPRPRPRPHWCPRP | -0.125
82 | RRIRTRPPRLPRPRPRPQQHPRP | -0.37
83 | RRIRPRPPRLPRPRPRPFIDPRP | -0.304
84 | RRIRKRPPRLPRPRPRPMHDPRP | 0.321
85 | RRIRDRPPRLPRPRPRPVYPPRP | -0.089
86 | RRIRNRPPRLPRPRPRPYTPPRP | -0.0563
87 | RRIRHRPPRLPRPRPRPPWGPRP | 0.347
88 | RRIRERPPRLPRPRPRPQCAPRP | 0.0306
89 | RRIRWRPPRLPRPRPRPKMKPRP | 0.193
90 | RRIRFRPPRLPRPRPRPCDHPRP | -0.0275
91 | RRIRHRPPRLPRPRPRPKADPRP | 0.117
92 | RRIRTRPPRLPRPRPRPMSEPRP | -0.00136
93 | RRIRTRPPRLPRPRPRPTRQPRP | 0.112
94 | RRIRIRPPRLPRPRPRPRHWPRP | -0.12
95 | RRIRIRPPRLPRPRPRPLEEPRP | 0.073
96 | RRIRYRPPRLPRPRPRPQFNPRP | -0.755
97 | RRIRDRPPRLPRPRPRPKYGPRP | -0.0519
98 | RRIRYRPPRLPRPRPRPKYPPRP | -0.0165
99 | RRIRGRPPRLPRPRPRPAKCPRP | -0.0198
100 | RRIRLRPPRLPRPRPRPCTHPRP | -0.0381

Row | Sequence | shrunken log2 fold change
101 | RRIRWRPPRLPRPRPRPARRPRP | 0.495
102 | RRIRVRPPRLPRPRPRPYGAPRP | 0.162
103 | RRIRVRPPRLPRPRPRPSTHPRP | -0.573
104 | RRIRERPPRLPRPRPRPEVWPRP | 0.4
105 | RRIRDRPPRLPRPRPRPWMVPRP | 0.333
106 | RRIRWRPPRLPRPRPRPFMRPRP | 0.276
107 | RRIRDRPPRLPRPRPRPNAKPRP | 0.128
108 | RRIRERPPRLPRPRPRPIPHPRP | -0.19
109 | RRIRPRPPRLPRPRPRPQPMPRP | 0.225
110 | RRIRHRPPRLPRPRPRPPEEPRP | 0.791
111 | RRIRCRPPRLPRPRPRPLVAPRP | 0.033
112 | RRIRVRPPRLPRPRPRPYHPPRP | -0.406
113 | RRIRGRPPRLPRPRPRPIMCPRP | 0.0901
114 | RRIRNRPPRLPRPRPRPCCMPRP | -0.0549
115 | RRIRHRPPRLPRPRPRPAACPRP | 0.066
116 | RRIRQRPPRLPRPRPRPYPSPRP | -0.161
117 | RRIRVRPPRLPRPRPRPLDQPRP | 0.0826
118 | RRIRKRPPRLPRPRPRPAFWPRP | 0.625
119 | RRIRVRPPRLPRPRPRPLYWPRP | -0.329
120 | RRIRVRPPRLPRPRPRPSSQPRP | -0.0546
121 | RRIRNRPPRLPRPRPRPKMAPRP | -0.00757
122 | RRIRLRPPRLPRPRPRPDSSPRP | 0.00161
123 | RRIRVRPPRLPRPRPRPLPTPRP | 0.184
124 | RRIRQRPPRLPRPRPRPIKGPRP | -0.0145
125 | RRIRERPPRLPRPRPRPMLDPRP | 0.0349
